# Test results from article PMC12309418, “Human Plastins are Novel Cytoskeletal pH Sensors with a Reduced F-actin Bundling Capacity at Basic pH” (Journal of molecular biology, 2025).
# Assays:
# Details in all cases: both partners purified
# [1] = target: T1, Skeletal actin, filamentous (F-actin) (rabbit, UniProt P68135 1-377); assay: co-sedimentation; high-speed co-sedimentation (300,000 g, 30 min, 25 °C), 2 uM ABD1 with 0-125 uM F-actin, 10 mM HEPES pH 8.0, 30 mM KCl, 2 mM MgCl2, 0.5 mM EGTA; fraction depleted from the supernatant fit to a binding curve
# [2] = target: T1, Skeletal actin, filamentous (F-actin); assay: co-sedimentation; high-speed co-sedimentation (300,000 g, 30 min, 25 °C), 2 uM ABD1 with 0-125 uM F-actin, 10 mM HEPES pH 7.0, 30 mM KCl, 2 mM MgCl2, 0.5 mM EGTA; fraction depleted from the supernatant fit to a binding curve
# [3] = target: T1, Skeletal actin, filamentous (F-actin); assay: co-sedimentation; high-speed co-sedimentation (300,000 g, 30 min, 25 °C), 5 uM PLS2 with 0-100 uM F-actin, 10 mM HEPES pH 7.0, 30 mM KCl, 2 mM MgCl2, 0.5 mM EGTA; fraction of PLS2 in the pellet fit to a binding curve
# [4] = target: T1, Skeletal actin, filamentous (F-actin); assay: co-sedimentation; high-speed co-sedimentation (300,000 g, 30 min, 25 °C), 5 uM PLS2 with 0-100 uM F-actin, 10 mM HEPES pH 8.0, 30 mM KCl, 2 mM MgCl2, 0.5 mM EGTA; fraction of PLS2 in the pellet fit to a binding curve
Binder,Kd [1] [µM],Kd [2] [µM],Kd [3] [µM],Kd [4] [µM]
"PLS2 ABD1 (a.a. 120-385) (domain or fragment, source: E. coli BL21-CodonPlus(DE3)pLysS, purified (IMAC on cobalt resin, TEV cleavage, Superdex 200); not shown: His6, N-terminal, cleaved) EEEKYAFVNWINKALENDPDCRHVIPMNPNTNDLFNAVGDGIVLCKMINLSVPDTIDERTINKKKLTPFTIQENLNLALNSASAIGCHVVNIGAEDLKEGKPYLVLGLLWQVIKIGLFADIELSRNEALIALLREGESLEDLMKLSPEELLLRWANYHLENAGCNKIGNFSTDIKDSKAYYHLLEQVAPKGDEEGVPAVVIDMSGLREKDDIQRAECMLQQAERLGCRQFVTATDVVRGNPKLNLAFIANLFNRYPALHKPENQDI",13.9,24.7,,
"plastin 2 (PLS2), full-length (natural protein, plastin 2 (PLS2, L-plastin, LCP1), human, full-length (FL) protein; Cloned in pColdI behind a 6xHis tag and TEV site; also called LCP1; L-plastin; source: E. coli BL21-CodonPlus(DE3)pLysS, purified (IMAC on cobalt resin, TEV cleavage, Superdex 200); not shown: His6, N-terminal, cleaved) MARGSVSDEEMMELREAFAKVDTDGNGYISFNELNDLFKAACLPLPGYRVREITENLMATGDLDQDGRISFDEFIKIFHGLKSTDVAKTFRKAINKKEGICAIGGTSEQSSVGTQHSYSEEEKYAFVNWINKALENDPDCRHVIPMNPNTNDLFNAVGDGIVLCKMINLSVPDTIDERTINKKKLTPFTIQENLNLALNSASAIGCHVVNIGAEDLKEGKPYLVLGLLWQVIKIGLFADIELSRNEALIALLREGESLEDLMKLSPEELLLRWANYHLENAGCNKIGNFSTDIKDSKAYYHLLEQVAPKGDEEGVPAVVIDMSGLREKDDIQRAECMLQQAERLGCRQFVTATDVVRGNPKLNLAFIANLFNRYPALHKPENQDIDWGALEGETREERTFRNWMNSLGVNPRVNHLYSDLSDALVIFQLYEKIKVPVDWNRVNKPPYPKLGGNMKKLENCNYAVELGKNQAKFSLVGIGGQDLNEGNRTLTLALIWQLMRRYTLNILEEIGGGQKVNDDIIVNWVNETLREAKKSSSISSFKDPKISTSLPVLDLIDAIQPGSINYDLLKTENLNDDEKLNNAKYAISMARKIGARVYALPEDLVEVNPKMVMTVFACLMGKGMKRV",,,31.7,17.7
